Data as given in patent US20150038408A1 (University of Washington, published 2015).
Like-named read-outs stand apart in the source and are kept apart here.

Experiments:
[1] = molecular target: T1, A/South Carolina/1/1918 (H1N1) hemagglutinin ectodomain (Influenza A virus A/South …)
[2] = molecular target: T1, A/South Carolina/1/1918 (H1N1) …; remark: listed apart in the source
[3] = molecular target: T1, A/South Carolina/1/1918 (H1N1) …; remark: listed apart in the source
[4] = molecular target: T1, A/South Carolina/1/1918 (H1N1) …; remark: listed apart in the source

| Binder | Kd [1] | Kd [2] | fold increase in binding affinity against HB36 [3] | Kd [4] |
| --- | --- | --- | --- | --- |
| HB80.1 (Met26Thr, Asn36Lys) (designed binder) MASTRGSGRPWDFSENLAFELALAFTNKDTPDRWAKVAQYVSGRTPEEVKKHYEILVEDIKYIESGKVPFPNYRTTGGNMKTDEKRFRNLKIRLE | 7.5 nM | 7.5 nM |  |  |
| HB36.1 (Asp47Ser) (designed binder) MSNAMDGQQLNRLLLEWIGAWDPFGLGKDAYDVEAEAVLQAVYETESAFDLAMRIMWIYAFAFNRPIPFPHAQKLARRLLELKQAASSPLPLE | 5 nM |  | ~40 fold | 2 to 5 nM |
